Experimental data reported in patent US20250171512A1.

biological target: human FGFR1c together with human beta-Klotho (KLB), stably expressed on CHO Flp-In cells (human) (UniProt P11362); test: cell-based or functional assay
Sequence (P11362 22-822, chain 1 of 2): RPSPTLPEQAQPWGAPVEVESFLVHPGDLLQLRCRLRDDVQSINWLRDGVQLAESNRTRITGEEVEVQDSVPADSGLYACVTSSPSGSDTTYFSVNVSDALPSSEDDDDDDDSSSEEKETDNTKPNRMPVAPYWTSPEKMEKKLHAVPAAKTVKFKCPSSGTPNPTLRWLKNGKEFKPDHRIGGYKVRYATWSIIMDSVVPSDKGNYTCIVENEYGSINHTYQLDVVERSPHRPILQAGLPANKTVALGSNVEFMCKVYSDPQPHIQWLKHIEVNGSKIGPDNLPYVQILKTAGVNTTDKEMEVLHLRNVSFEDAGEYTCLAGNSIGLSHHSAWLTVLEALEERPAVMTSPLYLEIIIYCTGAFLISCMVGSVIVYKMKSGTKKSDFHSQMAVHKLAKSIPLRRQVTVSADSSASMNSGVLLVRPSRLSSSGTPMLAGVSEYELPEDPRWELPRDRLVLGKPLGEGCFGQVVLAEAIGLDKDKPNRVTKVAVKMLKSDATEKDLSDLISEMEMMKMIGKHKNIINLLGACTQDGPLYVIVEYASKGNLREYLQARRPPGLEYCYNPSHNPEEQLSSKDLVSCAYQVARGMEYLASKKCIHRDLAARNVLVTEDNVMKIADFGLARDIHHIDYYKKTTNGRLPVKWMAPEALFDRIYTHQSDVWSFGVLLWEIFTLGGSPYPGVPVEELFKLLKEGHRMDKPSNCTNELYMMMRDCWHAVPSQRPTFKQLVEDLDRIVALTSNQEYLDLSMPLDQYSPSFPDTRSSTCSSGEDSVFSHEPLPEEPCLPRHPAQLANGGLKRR
Sequence (Q86Z14 whole entry, chain 2 of 2, further chain): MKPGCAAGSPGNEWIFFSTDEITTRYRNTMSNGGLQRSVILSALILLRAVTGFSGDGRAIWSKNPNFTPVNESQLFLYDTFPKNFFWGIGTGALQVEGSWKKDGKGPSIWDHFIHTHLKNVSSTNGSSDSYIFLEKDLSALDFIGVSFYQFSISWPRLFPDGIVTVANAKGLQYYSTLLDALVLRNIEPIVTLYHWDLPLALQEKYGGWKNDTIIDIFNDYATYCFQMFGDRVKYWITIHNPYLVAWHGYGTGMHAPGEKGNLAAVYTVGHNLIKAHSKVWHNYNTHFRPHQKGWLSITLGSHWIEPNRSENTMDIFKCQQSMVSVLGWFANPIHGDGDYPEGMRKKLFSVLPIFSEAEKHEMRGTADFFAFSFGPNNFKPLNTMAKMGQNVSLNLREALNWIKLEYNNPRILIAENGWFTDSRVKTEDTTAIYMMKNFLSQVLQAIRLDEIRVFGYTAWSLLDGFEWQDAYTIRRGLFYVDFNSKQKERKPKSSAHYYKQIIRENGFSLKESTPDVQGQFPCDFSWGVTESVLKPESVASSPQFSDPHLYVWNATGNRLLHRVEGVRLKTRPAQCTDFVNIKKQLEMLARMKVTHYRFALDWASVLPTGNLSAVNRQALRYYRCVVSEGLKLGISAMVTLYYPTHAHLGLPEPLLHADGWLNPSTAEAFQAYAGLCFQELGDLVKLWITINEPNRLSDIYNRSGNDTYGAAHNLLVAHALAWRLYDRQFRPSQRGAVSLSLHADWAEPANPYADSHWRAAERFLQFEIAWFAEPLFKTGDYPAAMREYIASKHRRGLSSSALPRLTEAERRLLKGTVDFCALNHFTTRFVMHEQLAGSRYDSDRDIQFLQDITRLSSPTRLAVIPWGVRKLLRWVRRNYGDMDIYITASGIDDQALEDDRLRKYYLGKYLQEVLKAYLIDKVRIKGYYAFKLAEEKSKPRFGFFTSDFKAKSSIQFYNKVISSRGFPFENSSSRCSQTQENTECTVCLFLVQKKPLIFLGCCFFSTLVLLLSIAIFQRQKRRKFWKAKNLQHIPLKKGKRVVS

Chain of FGF21 G198 deleted, S200 deleted (SEQ ID NO: 74) (Q9NSA1 other isoform, or with tags, fused parts or gaps): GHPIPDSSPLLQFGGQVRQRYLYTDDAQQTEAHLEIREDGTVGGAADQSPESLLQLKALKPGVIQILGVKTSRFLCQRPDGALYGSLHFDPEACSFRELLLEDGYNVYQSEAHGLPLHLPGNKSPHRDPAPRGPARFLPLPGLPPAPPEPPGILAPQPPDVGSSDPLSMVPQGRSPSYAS
Chain of FGF21 M196 deleted, S201 deleted (SEQ ID NO: 70) (Q9NSA1 other isoform, or with tags, fused parts or gaps): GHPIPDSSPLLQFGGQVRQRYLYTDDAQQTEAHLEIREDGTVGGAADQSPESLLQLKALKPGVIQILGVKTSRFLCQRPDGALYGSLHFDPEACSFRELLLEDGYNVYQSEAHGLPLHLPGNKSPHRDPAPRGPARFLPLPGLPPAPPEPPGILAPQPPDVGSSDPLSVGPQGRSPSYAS
Chain of FGF21 S191 deleted (SEQ ID NO: 53) (Q9NSA1 other isoform, or with tags, fused parts or gaps): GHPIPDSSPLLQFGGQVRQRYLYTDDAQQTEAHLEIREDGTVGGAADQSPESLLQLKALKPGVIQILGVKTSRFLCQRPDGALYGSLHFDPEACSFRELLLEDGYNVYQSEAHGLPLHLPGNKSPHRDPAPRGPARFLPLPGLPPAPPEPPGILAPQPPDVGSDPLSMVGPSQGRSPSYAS
Chain of FGF21 G189 deleted (SEQ ID NO: 55) (Q9NSA1 other isoform, or with tags, fused parts or gaps): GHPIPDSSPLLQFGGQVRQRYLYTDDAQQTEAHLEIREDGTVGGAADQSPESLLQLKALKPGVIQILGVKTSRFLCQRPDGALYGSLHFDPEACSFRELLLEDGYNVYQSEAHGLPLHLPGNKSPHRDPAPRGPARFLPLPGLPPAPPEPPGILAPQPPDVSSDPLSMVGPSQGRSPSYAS
Chain of FGF21 G198 deleted (SEQ ID NO: 29) (Q9NSA1 other isoform, or with tags, fused parts or gaps): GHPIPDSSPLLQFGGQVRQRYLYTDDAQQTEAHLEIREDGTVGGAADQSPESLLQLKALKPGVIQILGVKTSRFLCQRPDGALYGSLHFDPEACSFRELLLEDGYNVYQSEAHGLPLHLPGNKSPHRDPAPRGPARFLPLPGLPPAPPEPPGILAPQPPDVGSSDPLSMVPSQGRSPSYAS
Chain of FGF21 Q201 deleted (SEQ ID NO: 62) (Q9NSA1 other isoform, or with tags, fused parts or gaps): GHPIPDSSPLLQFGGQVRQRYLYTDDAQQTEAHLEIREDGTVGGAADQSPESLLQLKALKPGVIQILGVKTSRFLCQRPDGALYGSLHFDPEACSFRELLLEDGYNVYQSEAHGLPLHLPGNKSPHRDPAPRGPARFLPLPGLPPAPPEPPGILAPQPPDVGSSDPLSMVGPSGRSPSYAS
Chain of FGF21 P205 deleted (SEQ ID NO: 66) (Q9NSA1 other isoform, or with tags, fused parts or gaps): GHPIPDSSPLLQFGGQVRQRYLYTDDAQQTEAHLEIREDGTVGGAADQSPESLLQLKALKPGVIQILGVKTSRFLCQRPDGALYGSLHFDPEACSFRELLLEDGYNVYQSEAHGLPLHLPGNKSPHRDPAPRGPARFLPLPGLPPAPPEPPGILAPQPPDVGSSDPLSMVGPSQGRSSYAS
Chain of FGF21 P199 deleted (SEQ ID NO: 11) (Q9NSA1 other isoform, or with tags, fused parts or gaps): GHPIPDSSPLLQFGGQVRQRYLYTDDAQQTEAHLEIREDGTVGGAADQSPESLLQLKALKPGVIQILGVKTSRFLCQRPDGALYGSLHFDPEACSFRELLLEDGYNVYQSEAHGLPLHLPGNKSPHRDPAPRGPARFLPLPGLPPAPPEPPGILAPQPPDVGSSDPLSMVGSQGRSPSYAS
Chain of FGF21 Q184 deleted (SEQ ID NO: 60) (Q9NSA1 other isoform, or with tags, fused parts or gaps): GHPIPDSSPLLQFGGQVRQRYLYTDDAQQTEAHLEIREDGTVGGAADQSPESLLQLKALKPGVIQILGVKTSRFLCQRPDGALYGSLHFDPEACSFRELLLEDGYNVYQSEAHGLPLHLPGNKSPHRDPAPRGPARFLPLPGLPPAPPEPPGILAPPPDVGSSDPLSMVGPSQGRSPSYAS
Chain of FGF21 G202 deleted (SEQ ID NO: 63) (Q9NSA1 other isoform, or with tags, fused parts or gaps): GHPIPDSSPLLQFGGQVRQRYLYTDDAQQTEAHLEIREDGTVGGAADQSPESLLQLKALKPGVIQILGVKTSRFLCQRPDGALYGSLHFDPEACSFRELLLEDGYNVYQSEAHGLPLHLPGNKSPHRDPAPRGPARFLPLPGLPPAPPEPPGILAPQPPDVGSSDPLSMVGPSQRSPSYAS
Chain of FGF21, human (SEQ ID NO: 2), with N-terminal tag (Q9NSA1 29-209 L174P): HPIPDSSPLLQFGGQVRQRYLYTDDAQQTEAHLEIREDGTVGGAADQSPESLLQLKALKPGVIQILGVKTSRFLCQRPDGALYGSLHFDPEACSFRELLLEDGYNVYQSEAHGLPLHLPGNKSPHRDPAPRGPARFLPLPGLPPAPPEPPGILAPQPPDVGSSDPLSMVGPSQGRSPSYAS
Chain of FGF21 G198-P199 deleted (SEQ ID NO: 30) (Q9NSA1 other isoform, or with tags, fused parts or gaps): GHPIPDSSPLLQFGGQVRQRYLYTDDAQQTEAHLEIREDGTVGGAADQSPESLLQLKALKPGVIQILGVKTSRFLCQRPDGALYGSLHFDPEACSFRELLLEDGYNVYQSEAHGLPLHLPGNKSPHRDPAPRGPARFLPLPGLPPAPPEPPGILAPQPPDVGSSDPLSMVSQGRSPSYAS
Chain of FGF21 V197 deleted, S201 deleted (SEQ ID NO: 69) (Q9NSA1 other isoform, or with tags, fused parts or gaps): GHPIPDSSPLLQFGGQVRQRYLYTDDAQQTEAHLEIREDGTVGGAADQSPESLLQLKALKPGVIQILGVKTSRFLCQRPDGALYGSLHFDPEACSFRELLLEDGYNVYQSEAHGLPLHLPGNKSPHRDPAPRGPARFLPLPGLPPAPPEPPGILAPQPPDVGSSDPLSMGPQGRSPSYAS
Chain of FGF21 GGGGS inserted between G198 and P199 (SEQ ID NO: 15) (Q9NSA1 other isoform, or with tags, fused parts or gaps): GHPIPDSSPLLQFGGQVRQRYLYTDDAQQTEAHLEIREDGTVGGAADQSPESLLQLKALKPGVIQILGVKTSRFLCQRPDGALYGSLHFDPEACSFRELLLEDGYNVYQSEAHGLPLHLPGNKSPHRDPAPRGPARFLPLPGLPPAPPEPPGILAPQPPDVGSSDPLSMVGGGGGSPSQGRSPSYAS
Chain of FGF21 V197 deleted (SEQ ID NO: 34) (Q9NSA1 other isoform, or with tags, fused parts or gaps): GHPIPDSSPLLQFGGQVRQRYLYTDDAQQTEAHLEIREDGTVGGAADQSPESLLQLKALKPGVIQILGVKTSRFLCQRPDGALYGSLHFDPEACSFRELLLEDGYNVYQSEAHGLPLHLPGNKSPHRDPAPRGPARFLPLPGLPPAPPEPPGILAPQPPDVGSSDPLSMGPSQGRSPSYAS

pERK ICW EC50 [nmol/L] | Substance
21.9 | FGF21 Q104C, H140C (SEQ ID NO: 108) (from UniProt Q9NSA1 29-209) (ligand)
48.2 | FGF21 R100C, L114C (SEQ ID NO: 103) (from UniProt Q9NSA1 29-209) (ligand)
27.4 | FGF21 P205 deleted (SEQ ID NO: 66) (from UniProt Q9NSA1 29-209) (ligand)
76.2 | FGF21 G189 deleted (SEQ ID NO: 55) (from UniProt Q9NSA1 29-209) (ligand)
0.75 | FGF21 A59C, G71C, G198Y (SEQ ID NO: 37) (from UniProt Q9NSA1 29-209) (ligand)
19.2 | FGF21 A59C, A73C (SEQ ID NO: 105) (from UniProt Q9NSA1 29-209) (ligand)
68.8 | FGF21 V197 deleted (SEQ ID NO: 34) (from UniProt Q9NSA1 29-209) (ligand)
78.1 | FGF21 V197-R203 deleted and replaced by GLNSMV (SEQ ID NO: 28) (from UniProt Q9NSA1 29-209) (ligand)
0.48 | FGF21 Q55C, G148C (SEQ ID NO: 93) (from UniProt Q9NSA1 29-209) (ligand)
17.9 | FGF21 L80C, V96C (SEQ ID NO: 119) (from UniProt Q9NSA1 29-209) (ligand)
77.8 | FGF21 G198 deleted, S200 deleted (SEQ ID NO: 74) (from UniProt Q9NSA1 29-209) (ligand)
11.7 | FGF21 V69C, L110C (SEQ ID NO: 113) (from UniProt Q9NSA1 29-209) (ligand)
49.4 | FGF21 D130C, Y132C (SEQ ID NO: 83) (from UniProt Q9NSA1 29-209) (ligand)
1.62 | FGF21 S200Q, Q201S (SEQ ID NO: 25) (from UniProt Q9NSA1 29-209) (ligand)
8.18 | FGF21 G202 deleted (SEQ ID NO: 63) (from UniProt Q9NSA1 29-209) (ligand)
2.1 | FGF21 G198 deleted, P199F (SEQ ID NO: 31) (from UniProt Q9NSA1 29-209) (ligand)
1.7 | FGF21 Q55C, N149C, P199 deleted (SEQ ID NO: 46) (from UniProt Q9NSA1 29-209) (ligand)
10 | FGF21 Q55C, P147C, P199 deleted (SEQ ID NO: 44) (from UniProt Q9NSA1 29-209) (ligand)
1.65 | FGF21 P199G (SEQ ID NO: 21) (from UniProt Q9NSA1 29-209) (ligand)
7.27 | FGF21 Q55C, G148C, N149-R159 deleted and replaced by GGSGGS (SEQ ID NO: 95) (from UniProt Q9NSA1 29-209) (ligand)
4.94 | FGF21 G198D (SEQ ID NO: 17) (from UniProt Q9NSA1 29-209) (ligand)
46.5 | FGF21 L81C, G95C (SEQ ID NO: 121) (from UniProt Q9NSA1 29-209) (ligand)
1.25 | FGF21 S76C, S79C, P199 deleted (SEQ ID NO: 38) (from UniProt Q9NSA1 29-209) (ligand)
98.7 | FGF21 V197 deleted, S201 deleted (SEQ ID NO: 69) (from UniProt Q9NSA1 29-209) (ligand)

Second part, the substance before the results:

Substance | pERK ICW EC50 [nmol/L]
FGF21 P199Q, Q201P (SEQ ID NO: 10) (from UniProt Q9NSA1 29-209) (ligand) | 1.76
FGF21 A72C, S79C (SEQ ID NO: 87) (from UniProt Q9NSA1 29-209) (ligand) | 11.8
FGF21 Q184 deleted (SEQ ID NO: 60) (from UniProt Q9NSA1 29-209) (ligand) | 2.26
FGF21 P199R (SEQ ID NO: 22) (from UniProt Q9NSA1 29-209) (ligand) | 0.95
FGF21 S191 deleted (SEQ ID NO: 53) (from UniProt Q9NSA1 29-209) (ligand) | 97.3
FGF21 M196V, V197M (SEQ ID NO: 13) (from UniProt Q9NSA1 29-209) (ligand) | 26.7
FGF21 Q55C, G148C, N149-R159 deleted and replaced by GSGS (SEQ ID NO: 94) (from UniProt Q9NSA1 29-209) (ligand) | 8.19
FGF21 Q104C, S137C (SEQ ID NO: 107) (from UniProt Q9NSA1 29-209) (ligand) | 1.83
FGF21 G198 deleted, P199L (SEQ ID NO: 32) (from UniProt Q9NSA1 29-209) (ligand) | 4.8
FGF21 Q201 deleted (SEQ ID NO: 62) (from UniProt Q9NSA1 29-209) (ligand) | 1.91
FGF21, human (SEQ ID NO: 2), with N-terminal tag (from UniProt Q9NSA1 29-209) (ligand) | 1.03
FGF21 G198K (SEQ ID NO: 19) (from UniProt Q9NSA1 29-209) (ligand) | 1.81
FGF21 P199 deleted (SEQ ID NO: 11) (from UniProt Q9NSA1 29-209) (ligand) | 2.31
FGF21 G198-P199 deleted (SEQ ID NO: 30) (from UniProt Q9NSA1 29-209) (ligand) | 14.5
FGF21 H60C, S79C (SEQ ID NO: 75) (from UniProt Q9NSA1 29-209) (ligand) | 67.1
FGF21 I63C, G112C (SEQ ID NO: 79) (from UniProt Q9NSA1 29-209) (ligand) | 5.05
FGF21 Q55C, N149C, G198Y (SEQ ID NO: 47) (from UniProt Q9NSA1 29-209) (ligand) | 0.58
FGF21 M196 deleted, S201 deleted (SEQ ID NO: 70) (from UniProt Q9NSA1 29-209) (ligand) | 165
FGF21 GGGGS inserted between G198 and P199 (SEQ ID NO: 15) (from UniProt Q9NSA1 29-209) (ligand) | 3.07
FGF21 Q55C, P147C, G198Y (SEQ ID NO: 45) (from UniProt Q9NSA1 29-209) (ligand) | 3.6
FGF21 A59C, G71C, P199 deleted (SEQ ID NO: 36) (from UniProt Q9NSA1 29-209) (ligand) | 1.16
FGF21 Q82C, L94C (SEQ ID NO: 122) (from UniProt Q9NSA1 29-209) (ligand) | 5.57
FGF21 P199T (SEQ ID NO: 23) (from UniProt Q9NSA1 29-209) (ligand) | 1.66
FGF21 Q55G, Q56C, L146C (SEQ ID NO: 96) (from UniProt Q9NSA1 29-209) (ligand) | 163
FGF21 A72C, S79C, G108C, L142C (SEQ ID NO: 89) (from UniProt Q9NSA1 29-209) (ligand) | 8.24
FGF21 G198 deleted (SEQ ID NO: 29) (from UniProt Q9NSA1 29-209) (ligand) | 41.6
FGF21 L146C, A162C (SEQ ID NO: 35) (from UniProt Q9NSA1 29-209) (ligand) | 8.28
